# Source: paper PMC8101287
# Target: human LAG‐3 on JRT LAG‐3^+ C8 cells (human) (UniProt P18627)
# Experiment: flow cytometry on cells
# Chain of human LAG‐3 on JRT LAG‐3^+ C8 cells (human) (P18627 23-525): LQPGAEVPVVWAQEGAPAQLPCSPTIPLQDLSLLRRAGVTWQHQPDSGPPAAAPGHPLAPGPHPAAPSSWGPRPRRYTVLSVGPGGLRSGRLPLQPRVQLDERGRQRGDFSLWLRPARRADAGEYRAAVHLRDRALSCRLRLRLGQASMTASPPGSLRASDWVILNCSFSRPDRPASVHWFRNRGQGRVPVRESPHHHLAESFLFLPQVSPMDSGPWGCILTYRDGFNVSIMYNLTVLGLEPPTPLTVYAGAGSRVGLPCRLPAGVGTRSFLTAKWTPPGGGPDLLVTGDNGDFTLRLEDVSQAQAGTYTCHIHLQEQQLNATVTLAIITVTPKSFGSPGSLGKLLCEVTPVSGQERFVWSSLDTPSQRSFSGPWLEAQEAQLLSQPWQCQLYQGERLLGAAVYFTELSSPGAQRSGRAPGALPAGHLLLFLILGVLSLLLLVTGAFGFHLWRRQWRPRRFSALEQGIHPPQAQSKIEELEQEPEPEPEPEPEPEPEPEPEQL
substance,measurement,value
PE labeled pHLA‐DR1 dextramers loaded with HA_(306‐318) peptide (peptide-MHC),percent of cells with detectable multimer staining,19%
